Holding throughout (assay): two-hybrid library CCNG1;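 note: natural log of median RNA to DNA barcode read ratio; higher means stronger binding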
One experiment deals with T1, 4H584-bH.
T1 chain: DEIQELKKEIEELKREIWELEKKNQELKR

The target of a further experiment is T2, 4H3974-bH.
T2 chain: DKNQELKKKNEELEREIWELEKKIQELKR

The next experiment deals with T3, 4H619-bH.
T3 chain: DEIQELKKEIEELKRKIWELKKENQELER

The target in another experiment is T4, 4H570-bH.
T4 chain: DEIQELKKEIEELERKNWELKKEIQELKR

For the next experiment, the target named is T5, 4H3858-bH.
T5 chain: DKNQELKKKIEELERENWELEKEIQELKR

Another experiment concerns the target T6, 4H906-bH.
T6 chain: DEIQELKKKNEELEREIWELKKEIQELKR

For another experiment, the target named is T7, 4H4073-bH.
T7 chain: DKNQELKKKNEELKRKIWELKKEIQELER

In the next experiment the target is T8, 4H850-bH.
T8 chain: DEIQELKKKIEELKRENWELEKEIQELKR

The next experiment has as its target T9, 4H3817-bH.
T9 chain: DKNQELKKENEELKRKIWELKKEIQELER

The target in the next experiment is T10, 4H626-bH.
T10 chain: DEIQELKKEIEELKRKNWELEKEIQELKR

The target in the next experiment is T11, 4H3497-bH.
T11 chain: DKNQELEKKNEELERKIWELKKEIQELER

The target of the next experiment is T12, 4H3613-bH.
T12 chain: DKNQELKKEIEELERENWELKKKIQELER

A further experiment has as its target T13, 4H3926-bH.
T13 chain: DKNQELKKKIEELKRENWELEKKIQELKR

The next experiment addresses T14, 4H3628-bH.
T14 chain: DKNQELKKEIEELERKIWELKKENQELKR

The target of a further experiment is T15, 4H591-bH.
T15 chain: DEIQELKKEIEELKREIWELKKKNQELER

For DKNQELKKENEELKRKIWELKKEIQELER [4H3817-bH], the interaction score with 4H584-bH is -0.723; in the experiment with 4H3974-bH, 0.787; with 4H619-bH, 0.591; with 4H570-bH it was -0.71; with 4H3858-bH it was -0.973; with 4H906-bH, -0.699. Moreover, the interaction score was -1.13 in the experiment with 4H4073-bH, -0.885 with 4H850-bH and 0.775 with 4H3817-bH.
Consider DKNQELEKKNEELERKIWELKKEIQELER [4H3497-bH], for which the interaction score with 4H626-bH was -0.895; with 4H3497-bH it was -1.02; with 4H3613-bH, -0.463; in the experiment with 4H3926-bH, -0.573; in the experiment with 4H906-bH, -0.345; with 4H3628-bH, 0.758. The molecule also yielded an interaction score with 4H591-bH of -1.46.

The values above are taken from article PMC10397247.
